Test [1] addresses human CD19 on the surface of cells (human) (UniProt P15391). Briefly: FACS on Raji cells.
For test [2], the target named is monkey CD19 on cells (monkey). Briefly: FACS on HEK293T-monkey CD19.
The target in test [3] is human CD19 on the surface of cells (human) (UniProt P15391). In words: FACS on CHO-K1-human CD19-1C4.
For test [4] the target is unchanged. In words: FACS on CHO-K1-human CD19-1C9.
Test [5] has the same target. Briefly: FACS on CHO-K1-human CD19-2C8.
Test [6] shares this target. In words: FACS on CHO-K1-human CD19-2G4.
The target in test [7] is human CD19 on Raji cells (human) (UniProt P15391). In words: FACS on Raji cells.
Chain of human CD19 on Raji cells (human) (P15391 20-556): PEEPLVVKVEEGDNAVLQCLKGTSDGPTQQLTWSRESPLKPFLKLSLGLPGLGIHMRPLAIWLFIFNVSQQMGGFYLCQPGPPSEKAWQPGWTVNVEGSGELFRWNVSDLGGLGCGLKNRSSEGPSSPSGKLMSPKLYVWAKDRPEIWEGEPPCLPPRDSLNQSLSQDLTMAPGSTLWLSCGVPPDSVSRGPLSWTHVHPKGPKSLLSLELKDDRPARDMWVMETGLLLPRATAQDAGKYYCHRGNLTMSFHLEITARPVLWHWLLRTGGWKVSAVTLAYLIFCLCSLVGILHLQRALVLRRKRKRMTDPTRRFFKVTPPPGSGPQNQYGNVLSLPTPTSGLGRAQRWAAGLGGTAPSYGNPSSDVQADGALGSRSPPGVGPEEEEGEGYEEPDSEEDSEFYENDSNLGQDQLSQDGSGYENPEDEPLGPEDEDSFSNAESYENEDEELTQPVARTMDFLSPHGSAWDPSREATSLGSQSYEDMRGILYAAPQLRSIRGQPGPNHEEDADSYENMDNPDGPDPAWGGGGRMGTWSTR
For test [8], the target named is Human CD19-his protein (human) (UniProt P15391). Briefly: ELISA, antibody at 10 nM.
Chain of Human CD19-his protein (human) (P15391 20-291 limits assumed): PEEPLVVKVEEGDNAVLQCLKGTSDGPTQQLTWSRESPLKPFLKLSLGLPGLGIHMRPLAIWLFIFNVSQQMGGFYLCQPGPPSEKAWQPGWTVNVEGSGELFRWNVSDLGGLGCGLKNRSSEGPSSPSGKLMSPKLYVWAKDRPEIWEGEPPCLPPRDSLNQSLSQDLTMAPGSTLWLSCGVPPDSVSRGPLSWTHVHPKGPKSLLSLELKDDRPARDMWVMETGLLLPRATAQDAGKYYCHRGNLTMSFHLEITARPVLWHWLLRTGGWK
The target is the same in test [9]. Briefly: ELISA, antibody at 100 nM. On the technique in general: In an ELISA, binding on a coated surface is turned into a signal by an enzyme label.
The target is the same in test [10]. In words: ELISA, antibody at 0.01 nM.
The target is the same in test [11]. In words: ELISA, antibody at 0.10 nM.
The target is the same in test [12]. Briefly: ELISA, antibody at 1.00 nM.
The target is the same in test [13]. In words: ELISA, antibody at 0.001 nM.
The target is the same in test [14]. In words: ELISA, antibody at 0.0001 nM.
For test [15], the target named is human CD19 on CHO-K1-human CD19 cells (human) (UniProt P15391). Briefly: FACS on CHO-K1-human CD19 cells.
Chain of human CD19 on CHO-K1-human CD19 cells (human) (P15391 20-556): as the sequence (P15391 20-556) above
Test [16] has as its target monkey CD19 on HEK293T-monkey CD19 cells (monkey). In words: FACS on HEK293T-monkey CD19 cells.
Test [17] has as its target cynomolgus monkey CD19 on peripheral blood B cells (cynomolgus monkey (Macaca fascicularis)). In words: FACS, cynomolgus PBMC, CD20+ B cells. A general note: A flow cytometer gives signals particle by particle.
The target in test [18] is Human CD19-his protein (human) (UniProt P15391). Briefly: ELISA, coated human CD19-His.

The values below come from patent publication US20250042994A1.

Chain of human CD19 on the surface of cells (human) (P15391 20-556): as above

In the case of IgG subtype control (antibody), the mean fluorescence intensity in [1] turned out to be 72; in [2] it was 62; in [3], 50; in [4], 50; in [5], 50; in [6], 50.

Consider anti-hel-hIgG1 (antibody), for which the Maximum mean fluorescence intensity came to 435 in test [7], 99 in [15] and 90 in test [16]. Further, the OD450 came out at 0.05 in test [8]; 0.08 in test [9]; 0.05 in test [10]; 0.05 in test [11]; 0.05 in test [12]; 0.05 in test [13]. The substance also came in with an OD450 in test [14] of 0.04. In addition, the Proportion of chimeric antibody positive cells to B cells (%) at 1 nM in [17] came to 1%. The Proportion of chimeric antibody positive cells to B cells (%) at 10 nM in test [17] was 1%. In addition, the Proportion of chimeric antibody positive cells to B cells (%) at 100 nM in test [17] turned out to be 1%.

Take anti-hel-mIgG1 (antibody): the Maximum mean fluorescence intensity in test [7] came to 651 MFI. In test [18], this substance showed an OD450 at 0.0001 nM of 0.09 OD450, an OD450 at 0.001 nM of 0.08 OD450, an OD450 at 0.01 nM of 0.08 OD450 and an OD450 at 0.10 nM of 0.08 OD450. In addition, in [18], the OD450 at 1.00 nM worked out at 0.08 OD450 and the OD450 at 100 nM came to 0.17 OD450. Besides, in test [15], the Maximum mean fluorescence intensity stood at 82 MFI.
